Consider 1 substance from PMC5586346.

The target of test [1] is dominant-negative α7 nAChR α7_(345-8A) (UniProt P36544).
Test [2] concerns the target α7 nicotinic acetylcholine receptor (mouse (endogenous in EOC20)) (UniProt P49582).
The target of test [3] is dominant-negative α7 nAChR α7_(345-8A) (UniProt P36544). The source holds these as a separate data set.
Test [4] deals with α7 nicotinic acetylcholine receptor (mouse (endogenous in EOC20)) (UniProt P49582). The source holds these as a separate data set.

Turning to “heterotrimeric G protein subunit Gαi (from UniProt P08752 1-355) (natural protein)”, the TNF-α release (ELISA of the medium), % change from baseline with LPS, LPS + 1 mM choline, EOC20 cells transfected with α7 (345-8A) in test [1] was -9.22%. Also, the TNF-α release (ELISA of the medium), % change from baseline with LPS, LPS + 1 mM choline, EOC20 cells transfected with empty vector in test [2] was -25.8%. Further, the peak of the intracellular calcium transient (GCaMP5G, % of baseline) on 3 mM choline, EOC20 cells transfected with α7 (345-8A) in test [3] was 368%. Moreover, in test [4], the peak of the intracellular calcium transient (GCaMP5G, % of baseline) on 3 mM choline, EOC20 cells transfected with empty plasmid was 580%.
